This data set concerns the target T1, GZF1-Flag (UniProt Q4VBD9 1-706).
T1 sequence: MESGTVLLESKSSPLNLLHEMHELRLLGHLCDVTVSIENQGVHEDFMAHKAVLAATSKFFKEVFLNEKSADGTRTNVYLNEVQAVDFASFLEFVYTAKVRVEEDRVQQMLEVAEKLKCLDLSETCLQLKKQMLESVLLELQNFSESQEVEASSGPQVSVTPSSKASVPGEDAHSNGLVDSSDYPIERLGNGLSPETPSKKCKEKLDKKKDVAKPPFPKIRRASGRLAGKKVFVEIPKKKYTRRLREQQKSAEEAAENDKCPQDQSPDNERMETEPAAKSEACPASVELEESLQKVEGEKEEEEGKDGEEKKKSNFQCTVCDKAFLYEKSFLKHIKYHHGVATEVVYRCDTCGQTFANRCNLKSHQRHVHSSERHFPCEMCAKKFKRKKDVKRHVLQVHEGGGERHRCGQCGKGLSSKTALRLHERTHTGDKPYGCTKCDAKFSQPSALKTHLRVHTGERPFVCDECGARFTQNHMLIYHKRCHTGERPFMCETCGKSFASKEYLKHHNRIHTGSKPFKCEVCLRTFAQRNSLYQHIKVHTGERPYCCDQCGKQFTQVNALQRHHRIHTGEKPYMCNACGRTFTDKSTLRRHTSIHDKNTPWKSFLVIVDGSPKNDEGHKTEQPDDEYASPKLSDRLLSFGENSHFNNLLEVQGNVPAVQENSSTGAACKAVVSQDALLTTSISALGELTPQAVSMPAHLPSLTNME
In words: PBM.

As for GAGGCCATTACGGTAATGCCTCCTGGCATTACCGTAATGGCCTCACACTC (structured_DNA) [Gzf1_bs_unmethylated], the binding result is recorded as “binds”.
